Drawing on publication PMC12516561 (2025), this text covers ratio to parent for six variants.

B1: iRhom2 wild type (HA-tagged) [human] / 14-3-3 epsilon, endogenous [human (endogenous in HEK293T)] (parent)
chain 1: MASADKNGGSVSSVSSSRLQSRKPPNLSITIPPPEKETQAPGEQDSMLPEGFQNRRLKKSQPRTWAAHTTACPPSFLPKRKNPAYLKSVSLQEPRSRWQESSEKRPGFRRQASLSQSIRKGAAQWFGVSGDWEGQRQQWQRRSLHHCSMRYGRLKASCQRDLELPSQEAPSFQGTESPKPCKMPKIVDPLARGRAFRHPEEMDRPHAPHPPLTPGVLSLTSFTSVRSGYSHLPRRKRMSVAHMSLQAAAALLKGRSVLDATGQRCRVVKRSFAFPSFLEEDVVDGADTFDSSFFSKEEMSSMPDDVFESPPLSASYFRGIPHSASPVSPDGVQIPLKEYGRAPVPGPRRGKRIASKVKHFAFDRKKRHYGLGVVGNWLNRSYRRSISSTVQRQLESFDSHRPYFTYWLTFVHVIITLLVICTYGIAPVGFAQHVTTQLVLRNKGVYESVKYIQQENFWVGPSSIDLIHLGAKFSPCIRKDGQIEQLVLRERDLERDSGCCVQNDHSGCIQTQRKDCSETLATFVKWQDDTGPPMDKSDLGQKRTSGAVCHQDPRTCEEPASSGAHIWPDDITKWPICTEQARSNHTGFLHMDCEIKGRPCCIGTKGSCEITTREYCEFMHGYFHEEATLCSQVHCLDKVCGLLPFLNPEVPDQFYRLWLSLFLHAGVVHCLVSVVFQMTILRDLEKLAGWHRIAIIFILSGITGNLASAIFLPYRAEVGPAGSQFGLLACLFVELFQSWPLLERPWKAFLNLSAIVLFLFICGLLPWIDNIAHIFGFLSGLLLAFAFLPYITFGTSDKYRKRALILVSLLAFAGLFAALVLWLYIYPINWPWIEHLTCFPFTSRFCEKYELDQVLH
chain 2: MDDREDLVYQAKLAEQAERYDEMVESMKKVAGMDVELTVEERNLLSVAYKNVIGARRASWRIISSIEQKEENKGGEDKLKMIREYRQMVETELKLICCDILDVLDKHLIPAANTGESKVFYYKMKGDYHRYLAEFATGNDRKEAAENSLVAYKAASDIAMTELPPTHPIRLGLALNFSVFYYEILNSPDRACRLAKAAFDDAIAELDTLSEESYKDSTLIMQLLRDNLTLWTSDMQGDGEEQNKEALQDVEDENQ
B2: iRhom2 wild type (HA-tagged) [human] / beta-COP, endogenous [human (endogenous in HEK293T)] (parent)
chain 1: B1 chain 1
chain 2: MTAAENVCYTLINVPMDSEPPSEISLKNDLEKGDVKSKTEALKKVIIMILNGEKLPGLLMTIIRFVLPLQDHTIKKLLLVFWEIVPKTTPDGRLLHEMILVCDAYRKDLQHPNEFIRGSTLRFLCKLKEAELLEPLMPAIRACLEHRHSYVRRNAVLAIYTIYRNFEHLIPDAPELIHDFLVNEKDASCKRNAFMMLIHADQDRALDYLSTCIDQVQTFGDILQLVIVELIYKVCHANPSERARFIRCIYNLLQSSSPAVKYEAAGTLVTLSSAPTAIKAAAQCYIDLIIKESDNNVKLIVLDRLIELKEHPAHERVLQDLVMDILRVLSTPDLEVRKKTLQLALDLVSSRNVEELVIVLKKEVIKTNNVSEHEDTDKYRQLLVRTLHSCSVRFPDMAANVIPVLMEFLSDNNEAAAADVLEFVREAIQRFDNLRMLIVEKMLEVFHAIKSVKIYRGALWILGEYCSTKEDIQSVMTEIRRSLGEIPIVESEIKKEAGELKPEEEITVGPVQKLVTEMGTYATQSALSSSRPTKKEEDRPPLRGFLLDGDFFVAASLATTLTKIALRYVALVQEKKKQNSFVAEAMLLMATILHLGKSSLPKKPITDDDVDRISLCLKVLSECSPLMNDIFNKECRQSLSHMLSAKLEEEKLSQKKESEKRNVTVQPDDPISFMQLTAKNEMNCKEDQFQLSLLAAMGNTQRKEAADPLASKLNKVTQLTGFSDPVYAEAYVHVNQYDIVLDVLVVNQTSDTLQNCTLELATLGDLKLVEKPSPLTLAPHDFANIKANVKVASTENGIIFGNIVYDVSGAASDRNCVVLSDIHIDIMDYIQPATCTDAEFRQMWAEFEWENKVTVNTNMVDLNDYLQHILKSTNMKCLTPEKALSGYCGFMAANLYARSIFGEDALANVSIEKPIHQGPDAAVTGHIRIRAKSQGMALSLGDKINLSQKKTSI

The variants in the first test derive from B1. Put plainly: co-immunoprecipitation (HA-IP) with western blot quantification. The settings on record: with 14-3-3 epsilon, iRhom1/2 DKO HEK293T cells, three independent experiments, read off a plot. A general note: A western blot detects proteins with antibodies after separation by electrophoresis.
As for chain 1 S239A, the ratio to parent turned out to be 0.92. As to chain 1 P233A R234A R235A K236A R237A M238A, the ratio to parent is 1.3. Take chain 1 P233A R234A R235A K236A R237A M238A S239A: the ratio to parent was determined as 2.1.

A further test covers variants of B2. Described as above. Particulars: iRhom1/2 DKO HEK293T cells, three independent experiments, read off a plot.
Take chain 1 P233A R234A R235A K236A R237A M238A: the ratio to parent came out at 1.15.

chain 1 P233A R234A R235A K236A R237A M238A S239A: the ratio to parent is 1.05.

For the variant chain 1 S239A, the ratio to parent came out at 0.98.
